Laboratory results reported in PMC2172889.

Legend:
[1] = biological target: epidermal growth factor receptor (human (endogenous in MDA-MB-231)) (UniProt P00533); assay: flow cytometry on cells
[2] = biological target: epidermal growth factor receptor (human (endogenous in MDA-MB-231)) (UniProt P00533); assay: radioligand binding

With “recombinant domain III (DIII) of the laminin-5 γ2-chain (domain or fragment)” the fluorescence, fold over control, at saturation [1] was 12 fold and the IC50 2 (two-site competition, site 2) [2] was 1.19 µM.
